Data: patent US20040157289

Tests used:
[1] = aggregate size given for comparison with the gel exclusion result, self-association
[2] = Superose gel exclusion chromatography, self-association

| Substance | aggregate size [1] | aggregate size [2] |
| --- | --- | --- |
| wild type α-crystallin (alpha A crystallin) | about 800,000 daltons, depending on solution conditions |  |
| alpha A crystallin Δ51+ construct |  | calculated to be 60,000 daltons, which corresponds in size to a tetramer |
